Reference: patent publication US20210221878A1 (Bristol-Myers Squibb, published 2021)
Like-named read-outs stand apart in the source and are kept apart here. Primed or numbered codes have the meaning given here. * marks the point of attachment. Biotin = O=C1N[C@H]2[C@H](CS[C@H]2CCCCC(=O)*)N1; PEG4′ = not defined here

T1: 124-134
T1 construct: also called alphaSyn 124-134
T1 peptide: {Biotin-PEG4′}-AYEMPSEEGYQ-NH2

T2: 125-135
T2 peptide: {Biotin-PEG4′}-YEMPSEEGYQD-NH2

T3: 128-138
T3 peptide: {Biotin-PEG4′}-PSEEGYQDYEP-NH2

T4: 117-127
T4 construct: also called alphaSyn 117-127
T4 peptide: {Biotin-PEG4′}-PVDPDNEAYEM-NH2

T5: 119-129
T5 peptide: {Biotin-PEG4′}-DPDNEAYEMPS-NH2

T6: 116-126
T6 construct: also called alphaSyn 116-126
T6 peptide: {Biotin-PEG4′}-MPVDPDNEAYE-NH2

T7: 120-130
T7 construct: also called alphaSyn 120-130
T7 peptide: {Biotin-PEG4′}-PDNEAYEMPSE-NH2

T8: 123-133
T8 peptide: {Biotin-PEG4′}-EAYEMPSEEGY-NH2

T9: 129-139
T9 peptide: {Biotin-PEG4′}-SEEGYQDYEPE-NH2

T10: 121-131
T10 construct: also called alphaSyn 121-131
T10 peptide: {Biotin-PEG4′}-DNEAYEMPSEE-NH2

T11: 118-128
T11 construct: also called alphaSyn 118-128
T11 peptide: {Biotin-PEG4′}-VDPDNEAYEMP-NH2

T12: 122-132
T12 construct: also called alphaSyn 122-132
T12 peptide: {Biotin-PEG4′}-NEAYEMPSEEG-NH2

T13: 130-140
T13 construct: also called alphaSyn 130-140
T13 peptide: {Biotin-PEG4′}-EEGYQDYEPEA-NH2


Experiments:
[1] = biological target: PFF used as inducer in the immunodepletion assay of Example 10 (human, UniProt P37840 1-140); assay: cell-based or functional assay
[2] = biological target: T14, α-synuclein inducing species in brain lysates of MSA patients (12-18, 01-03, 04-51) (human, UniProt P37840 1-140); assay: cell-based or functional assay
[3] = biological target: T14, α-synuclein inducing species in brain …; assay: cell-based or functional assay; remark: listed apart in the source
[4] = biological target: T15, full-length human recombinant wild-type γ-synuclein monomer (human, UniProt O76070 1-127); assay: competition ELISA: antibody pre-incubated with titrated synuclein species in solution; unbound antibody captured on WT PFF-coated plate (CPS)
T15 construct: mature; also called human γSyn monomer

[5] = biological target: T16, full-length human recombinant wild-type β-synuclein monomer (human, UniProt Q16143 1-134); assay: as above
T16 construct: mature; also called human βSyn monomer

[6] = biological target: T14, α-synuclein inducing species in brain …; assay: cell-based or functional assay; remark: listed apart in the source
[7] = biological target: T14, α-synuclein inducing species in brain …; assay: cell-based or functional assay; remark: listed apart in the source
[8] = biological target: T15, full-length human recombinant wild-type …; assay: competition ELISA: antibody pre-incubated with titrated synuclein species in solution; unbound antibody captured on WT PFF-coated plate (CPS); remark: listed apart in the source
[9] = biological target: T15, full-length human recombinant wild-type …; assay: as above; remark: listed apart in the source
[10] = biological target: T16, full-length human recombinant wild-type …; assay: as above; remark: listed apart in the source
124-134 = biological target: T1, 124-134; assay: 1-sided ELISA on plate-bound biotinylated peptide, luminescence (CPS)
125-135 = biological target: T2, 125-135; assay: as above
128-138 = biological target: T3, 128-138; assay: as above
117-127 = biological target: T4, 117-127; assay: as above
119-129 = biological target: T5, 119-129; assay: as above
116-126 = biological target: T6, 116-126; assay: as above
120-130 = biological target: T7, 120-130; assay: as above
123-133 = biological target: T8, 123-133; assay: as above
129-139 = biological target: T9, 129-139; assay: as above
121-131 = biological target: T10, 121-131; assay: as above
118-128 = biological target: T11, 118-128; assay: as above
122-132 = biological target: T12, 122-132; assay: as above
130-140 = biological target: T13, 130-140; assay: as above
[11] = biological target: mouse αSyn 111-140 peptide (mouse, C-terminal amide (NH2)); assay: solution competition ELISA, free antibody captured on PFF plate; column Mouse 111-140 (nM)
[12] = biological target: T15, full-length human recombinant wild-type …; assay: competition ELISA: antibody pre-incubated with titrated synuclein species in solution; unbound antibody captured on WT PFF-coated plate (CPS); remark: listed apart in the source
[13] = biological target: T16, full-length human recombinant wild-type …; assay: as above; remark: listed apart in the source
rat αSyn 111-140 peptide = rat αSyn 111-140 peptide (rat, C-terminal amide (NH2)); assay: solution competition ELISA, free antibody captured on PFF plate; column Rat 111-140 (nM)

T16 sequence (Q16143 whole entry): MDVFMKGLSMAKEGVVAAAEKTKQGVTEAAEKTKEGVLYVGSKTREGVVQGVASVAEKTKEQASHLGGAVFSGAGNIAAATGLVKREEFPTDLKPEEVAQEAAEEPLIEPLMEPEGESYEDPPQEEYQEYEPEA

IC50 (nM), immunodepletion of pS129-inducing activity from PFF [1] [nM]	IC50 (nM), immunodepletion of pS129-inducing activity from MSA 12-18 lysate [2] [nM]	IC50 (nM), immunodepletion of pS129-inducing activity from MSA 01-03 lysate [3] [nM]	IC50 (nM), immunodepletion of pS129-inducing activity from MSA 04-51 lysate [6] [nM]	IC50 (nM), immunodepletion of pS129-inducing activity from MSA 12-18 lysate [7] [nM]	Binder	also measured
0.042	0.61	0.59	0.12	–	15A5 (antibody, V domains shown) VH: QVQLQESGPGLVKPSETLSLTCTVSGGSVSSGSYYWCWIRQPPGKGLEWIGYIYYSGRTKYNPSLKSRVTISVDTSKNQFSLKLSSVTAADTAVYYCARERGRFDYWGQGTLVTVSS VL: not shown	binding result [4]: binds; binding result [5]: binds
–	–	–	–	0.52	7A10-hIgG1.3f (antibody, V domains shown) VH: QVQLQESGPGLVKPSETLSLTCTVSGGSVSSGRYYWSWIRQPPGKGLEWIGYIYYSGRTKYNPSLKSRVTISVDTSKNQFSLKLSSVTAADTAVYYCTRERGYLDYWGQGTLVTVSS VL: not shown	–
–	–	–	–	51	7A10-Vh-R56S-K58N-T93A-IgG1.3f (antibody, name in Kabat numbering, V domains shown) VH: QVQLQESGPGLVKPSETLSLTCTVSGGSVSSGRYYWSWIRQPPGKGLEWIGYIYYSGSTNYNPSLKSRVTISVDTSKNQFSLKLSSVTAADTAVYYCARERGYLDYWGQGTLVTVSS VL: not shown	–
–	–	–	–	0.66	7A10-Vh-T93A-hHC-IgG1.3f (antibody, V domains shown) VH: QVQLQESGPGLVKPSETLSLTCTVSGGSVSSGRYYWSWIRQPPGKGLEWIGYIYYSGRTKYNPSLKSRVTISVDTSKNQFSLKLSSVTAADTAVYYCARERGYLDYWGQGTLVTVSS VL: not shown	–
0.018	0.39	0.28	0.04	–	7A10 (antibody, V domains shown) VH: QVQLQESGPGLVKPSETLSLTCTVSGGSVSSGRYYWSWIRQPPGKGLEWIGYIYYSGRTKYNPSLKSRVTISVDTSKNQFSLKLSSVTAADTAVYYCTRERGYLDYWGQGTLVTVSS VL: not shown	binding result [8]: binds
–	–	–	–	0.11	21A3-Vh-V82L-hHC-IgG1.3f (antibody, V domains shown) VH: QVQLQESGPGLVKPSETLSLTCTVSGGSVSNRNYYWSWIRQPPGKGLEWIGYIYYSGRTKYNPSLKSRVTISVDTSKNQFSLKLSSVTAADTAVYYCARERGRFDYWGQGTLVTVSS VL: not shown	–
–	–	–	–	0.19	21A3-hIgG1.3f (antibody, V domains shown) VH: QVQLQESGPGLVKPSETLSLTCTVSGGSVSNRNYYWSWIRQPPGKGLEWIGYIYYSGRTKYNPSLKSRVTISVDTSKNQFSLKVSSVTAADTAVYYCARERGRFDYWGQGTLVTVSS VL: not shown	–
–	–	–	–	9	7A10-Vh-R56S-T93A-hHC-IgG1.3f (antibody, name in Kabat numbering, V domains shown) VH: QVQLQESGPGLVKPSETLSLTCTVSGGSVSSGRYYWSWIRQPPGKGLEWIGYIYYSGSTKYNPSLKSRVTISVDTSKNQFSLKLSSVTAADTAVYYCARERGYLDYWGQGTLVTVSS VL: not shown	–
–	–	–	–	4.65	7A10-Vh-K58Y-T93A-hHC-IgG1.3f (antibody, name in Kabat numbering, V domains shown) VH: QVQLQESGPGLVKPSETLSLTCTVSGGSVSSGRYYWSWIRQPPGKGLEWIGYIYYSGRTYYNPSLKSRVTISVDTSKNQFSLKLSSVTAADTAVYYCARERGYLDYWGQGTLVTVSS VL: not shown	–
0.057	0.63	0.55	0.17	–	36A3 (antibody, V domains shown) VH: QVQLQESGPGLVKPSETLSLTCTVSGGSVSSGSYYWSWIRQPPGKGLEWIGYIYYSGRTKYNPSLKSRVTISVDTSRNQFSLKLSSVTAADTAVYYCARERGWLDPWGQGTLVTVSS VL: not shown	–
0.061	0.16	0.37	0.05	–	21A3 (antibody, V domains shown, also called 21A03) VH: QVQLQESGPGLVKPSETLSLTCTVSGGSVSNRNYYWSWIRQPPGKGLEWIGYIYYSGRTKYNPSLKSRVTISVDTSKNQFSLKVSSVTAADTAVYYCARERGRFDYWGQGTLVTVSS VL: not shown	binding result [9]: binds; binding result [10]: binds
0.028	2.21	2.7	0.41	–	44B11 (antibody, V domains shown) VH: EVQLVESGGGLIQPGGSLRLSCAASGFTVSSKYMSWVRQAPGKGLEWVSVMYSGGRRYYADSVKGRFTISRDNSKNTLYLQMNSLRAEDTAVYYCARGDRGDYWGQGTLVTVSS VL: EIVLTQSPATLSLSPGERATLSCRASQSVSSYLAWYQQKPGQAPRLLIYDASNRATGIPARFSGSGSGTDFTLTISSLEPEDFAVYYCQQRSNWPITFGQGTRLEIK	binding result (124-134): no binding; binding result (125-135): no binding; binding result (128-138): no binding; binding result (117-127): no binding; binding result (119-129): no binding; binding result (116-126): no binding; binding result (120-130): no binding; binding result (123-133): no binding; binding result (129-139): binds; binding result (121-131): no binding; binding result (118-128): no binding; binding result (122-132): no binding; binding result (130-140): binds; Fold Antibody 1, immunodepletion of PFF [1]: 1.1 fold; Fold Antibody 1, immunodepletion of MSA 12-18 lysate [2]: 2.5 fold; Fold Antibody 1, immunodepletion of MSA 01-03 lysate [3]: 0.9 fold; Fold Antibody 1, immunodepletion of MSA 04-51 lysate [6]: 1.1 fold
0.066	0.76	2.6	0.15	–	11H11-1 (antibody, V domains shown, shares its VH with 11H11-2) VH: EVQLVQSGGGLVHPGGSLRLSCAGSGFTFSSYAMHWVRQAPGKGLEWVSAIGTGGGTYYADSVKGRFTISRDNAKNSLYLQMNSLRAEDMAVYYCARGNWEFDYWGQGTLVTVSS VL: not shown	EC50 [11]: 5.75 µM; binding result [12]: binds; binding result [13]: binds; EC50 (rat αSyn 111-140 peptide): 5.71 µM
